Earlier results, collected in paper PMC3408481.

Legend:
PACAP (Homo sapiens) = PACAP (Homo sapiens) (UniProt P18509)
VIP (Homo sapiens) = VIP (Homo sapiens) (UniProt P01282)
UniProt P01282, sequence (P01282 125-152): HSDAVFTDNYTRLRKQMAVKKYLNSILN

UniProt P18509, sequence (P18509 82-129): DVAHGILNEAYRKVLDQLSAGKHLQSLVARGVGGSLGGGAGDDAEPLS

- Kd (PACAP (Homo sapiens)): 0.5 nM
- Kd (VIP (Homo sapiens)): 500 nM
Substance: PAC1 receptor (from UniProt P41586)
